Measurements as given in patent publication US20250313635A1, “ANTI-INTEGRIN ANTIBODIES AND USES THEREOF” (Merck Sharp & Dohme LLC, priority 2022, published 2025).
Substitutions are numbered along the chain they refer to. Where two headings read alike, the source gives them in different places.

B1: Ab-31: integrin binder antibody, VH SEQ ID NO: 35, VL SEQ ID NO: 36 (antibody, V domains shown)
VH: EVQLQESGPGLVKPSETLSLTCAVSGYSISSGYYWGWIRQPPGKGLEWIGSIYHSGNTYYNPSLKSRVTISVDTSKNQFSLKLSSVTAADTAVYYCARVPRYSRGDAYYYYGMDVWGQGTTVTVSS
VL: DIQMTQSPSTLSASVGDRVTITCRASQSIGSWLAWYQQKPGKAPKLLIYKASSLESGVPSRFSGSGSGTEFTLTISSLQPDDFATYYCQQSGPYPWTFGGGTKVEIK
B2: Ab-30: integrin binder antibody, VH SEQ ID NO: 33, VL SEQ ID NO: 34 (antibody, V domains shown)
VH: B1 VH
VL: DIQMTQSPSTLSASVGDRVTITCRASQSISSWLAWYQQKPGKAPKLLIYKASSLESGVPSRFSGSGSGTEFTLTISSLQPDDFATYYCQQVKIYPPYTFGGGTKVEIK
B3: Ab-32: integrin binder antibody, VH SEQ ID NO: 37, VL SEQ ID NO: 38 (antibody, V domains shown)
VH: B1 VH
VL: EIVLTQSPGTLSLSPGERATLSCRASQSVRSSYLAWYQQKPGQAPRLLIYGASSRATGIPDRFSGSGSGTDFTLTISRLEPEDFAVYYCQQAGLVFTFGGGTKVEIK
B4: Ab-33: integrin binder antibody, VH SEQ ID NO: 39, VL SEQ ID NO: 40 (antibody, V domains shown)
VH: EVQLVQSGAEVKKPGSSVKVSCKASGGTFSNYAISWVRQAPGQGLEWMGGIIPIFGTANYAQKFQGRVTITADESTSTAYMELSSLRSEDTAVYYCARAPRSARGDMYYYYYGMDVWGQGTTVTVSS
VL: B1 VL with S91Y, P93R
B5: mAb-24: control antibody abituzumab; 17E6, a therapeutic pan-αv integrin antibody (antibody, chains of the INN, looked up, V domains shown)
VH: QVQLQQSGGELAKPGASVKVSCKASGYTFSSFWMHWVRQAPGQGLEWIGYINPRSGYTEYNEIFRDKATMTTDTSTSTAYMELSSLRSEDTAVYYCASFLGRGAMDYWGQGTTVTVSS
VL: DIQMTQSPSSLSASVGDRVTITCRASQDISNYLAWYQQKPGKAPKLLIYYTSKIHSGVPSRFSGSGSGTDYTFTISSLQPEDIATYYCQQGNTFPYTFGQGTKVEIK
B6: Ab-29: integrin binder antibody, VH SEQ ID NO: 31, VL SEQ ID NO: 32 (antibody, V domains shown)
VH: ELQLQESGPGLVKPSETLSLTCTVSGGSISSNSYYWGWIRQPPGKGLEWIGSIYYSGSTYYNPSLKSRVTISVDTSKNQFSLKLSSVTAADTAVYYCARVRRVAGRGDSYYYYYGMDVWGQGTTVTVSS
VL: DIQMTQSPSSVSASVGDRVTITCRASQGISRWLAWYQQKPGKAPKLLIYAASSLQSGVPSRFSGSGSGTDFTLTISSLQPEDFATYYCQQAISHPWTFGGGTKVEIK

Experiments:
[1] = tested on: IPF patient lung fibroblasts; test: αSMA imaging, TGFβ-induced αSMA expression; type: cell-based, human; details: TGFβ 5 ng/mL, 48 hours
Procedure: (§1) αSMA imaging. Primary cells (passage 3-5) were grown on Cell carrier Ultra, collagen Type 1 coated 96-well plates (Perkin Elmer, #6055700) at a density of 25,000 cells/well. Once the cells adhere, they were starved in serum free media for 24 hours followed by addition of treatments, i.e., 5 ng/mL TGFβ (Biolegend #580702)±inhibitors. Cells were pre-treated with inhibitors for 30 minutes prior to the addition of TGFβ stimulation. 48 hours post treatment, the cells were fixed in 4% methanol free paraformaldehyde (ThermoFisher Scientific #28908) for 20 minutes at room temperature and incubated with anti-alpha smooth muscle Actin antibody (Abcam #ab7817) at 1:4000 overnight at 4° C. Following primary antibody incubation, cells were incubated with Goat anti-mouse secondary antibody (ThermoFisher Scientific #A32723) at 1:500 and Hoechst (ThermoFisher Scientific #62249) at 1:1000 for one hour at RT. The fixed and stained cells were images for immunofluorescence on Perkin Elmer's Opera Phenix high content Imager.

mαvβ8 = biological target: T1, mαvβ8 (Mus musculus, UniProt P43406+Q0VBD0); test: Mouse AlphaLISA integrin-ligand blocking assay (LAP); type: biochemical; details: Table 12; read-out: IC50 Mouse integrin AlphaLISA assays mαvβ8
T1 construct: The full extracellular domains for all α and β integrin subunits; (GGGS)3 linker (C); acidic coiled-coil with cysteine (C); GG-Avitag (C); hexa-histidine tag (C); basic coiled-coil with cysteine (C); made in house; host or cells: Expi293 cells
T1 sequence (P43406 31-988 limits assumed): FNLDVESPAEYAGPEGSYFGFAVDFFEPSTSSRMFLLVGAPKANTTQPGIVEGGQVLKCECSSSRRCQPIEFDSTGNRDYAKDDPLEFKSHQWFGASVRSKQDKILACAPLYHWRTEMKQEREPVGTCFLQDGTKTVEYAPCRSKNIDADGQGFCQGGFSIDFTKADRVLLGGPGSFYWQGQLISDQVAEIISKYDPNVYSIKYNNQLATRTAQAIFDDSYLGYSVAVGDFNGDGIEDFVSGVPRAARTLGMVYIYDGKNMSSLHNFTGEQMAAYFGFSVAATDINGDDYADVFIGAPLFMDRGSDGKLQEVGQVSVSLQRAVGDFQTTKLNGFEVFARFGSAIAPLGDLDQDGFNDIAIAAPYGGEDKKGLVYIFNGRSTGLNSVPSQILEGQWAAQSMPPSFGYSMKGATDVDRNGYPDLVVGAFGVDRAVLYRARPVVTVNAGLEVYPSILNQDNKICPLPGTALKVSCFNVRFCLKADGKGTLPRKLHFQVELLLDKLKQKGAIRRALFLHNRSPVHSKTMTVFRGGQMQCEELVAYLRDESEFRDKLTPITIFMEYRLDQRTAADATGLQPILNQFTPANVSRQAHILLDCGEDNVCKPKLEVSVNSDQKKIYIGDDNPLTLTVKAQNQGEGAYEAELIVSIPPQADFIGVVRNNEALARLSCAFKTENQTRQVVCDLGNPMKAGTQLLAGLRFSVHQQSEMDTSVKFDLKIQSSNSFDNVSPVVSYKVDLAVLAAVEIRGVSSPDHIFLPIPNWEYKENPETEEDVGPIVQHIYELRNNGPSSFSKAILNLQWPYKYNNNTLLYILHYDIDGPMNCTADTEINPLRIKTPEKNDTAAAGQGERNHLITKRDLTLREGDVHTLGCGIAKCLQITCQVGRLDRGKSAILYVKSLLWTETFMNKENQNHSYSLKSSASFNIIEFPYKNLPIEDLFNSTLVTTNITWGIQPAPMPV
T1 sequence (Q0VBD0 22-681 limits assumed): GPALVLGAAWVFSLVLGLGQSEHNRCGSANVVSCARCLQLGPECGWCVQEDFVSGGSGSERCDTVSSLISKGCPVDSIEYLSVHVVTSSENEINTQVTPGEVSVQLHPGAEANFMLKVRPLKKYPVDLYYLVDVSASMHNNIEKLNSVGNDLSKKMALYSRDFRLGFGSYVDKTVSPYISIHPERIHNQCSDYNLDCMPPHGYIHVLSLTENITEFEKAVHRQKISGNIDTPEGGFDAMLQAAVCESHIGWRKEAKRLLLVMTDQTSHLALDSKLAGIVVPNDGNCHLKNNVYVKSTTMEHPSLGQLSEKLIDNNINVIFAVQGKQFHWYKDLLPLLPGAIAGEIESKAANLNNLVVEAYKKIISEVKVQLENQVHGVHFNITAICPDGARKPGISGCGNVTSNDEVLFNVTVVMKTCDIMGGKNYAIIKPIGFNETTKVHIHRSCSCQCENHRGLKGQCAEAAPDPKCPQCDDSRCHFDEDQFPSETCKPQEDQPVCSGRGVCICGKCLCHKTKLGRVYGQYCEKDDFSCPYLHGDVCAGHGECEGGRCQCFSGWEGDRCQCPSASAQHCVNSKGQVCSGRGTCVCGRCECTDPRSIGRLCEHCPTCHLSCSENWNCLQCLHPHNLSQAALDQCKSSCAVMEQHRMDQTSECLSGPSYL
Procedure: (§2) Integrin AlphaLISA assay. In the AlphaLISA integrin assays, we used a HEPES based buffer (25 mM HEPES pH 7.4, 137 mM NaCl, 1 mM MgCl2, 1 mM MnCl2, 2 mM CaCl2, 2.7 mM KCl, and 0.05% Tween 20). Optimal assay conditions were determined with a titration of the reagents for signal noise ratio (S/N), linear range, etc. For the respective integrins, we used the final concentrations described in Table 9.
(§3) Briefly, the testing antibody (8 μL) was added as a 4×(of Final testing concentration) solution in the HEPES buffer described previously into a 384w AlphaPlate™ (Perkin Elmer #6005350). Then the integrin and ligand were added sequentially as 8×(4 μL each). Plates were sealed and incubated at room temperature for two hours. Then 4×acceptor bead solution ([…]) was added, and the plates were resealed and incubated at room temperature (RT) for one hour. Finally, 4×([…]) donor beads solution was added in a darkened room and incubated for 45 minutes at room temperature. Plates were read on the Envision (Perkin Elmer) in AlphaScreen™ mode within three hours of donor bead addition.

[2] = tested on: Normal human lung fibroblasts; test: αSMA imaging, TGFβ-induced αSMA expression; type: cell-based
Procedure: as §1

mα5β1 = biological target: T2, mα5β1 (Mus musculus, UniProt P09055+P11688); test: Mouse AlphaLISA integrin-ligand blocking assay (fibronectin); type: biochemical; details: Table 12; read-out: IC50 Mouse integrin AlphaLISA assays mα5β1
T2 construct: The full extracellular domains for all α and β integrin subunits; (GGGS)3 linker (C); acidic coiled-coil with cysteine (C); GG-Avitag (C); hexa-histidine tag (C); basic coiled-coil with cysteine (C); made in house; host or cells: Expi293 cells
T2 sequence (P11688 45-999 limits assumed): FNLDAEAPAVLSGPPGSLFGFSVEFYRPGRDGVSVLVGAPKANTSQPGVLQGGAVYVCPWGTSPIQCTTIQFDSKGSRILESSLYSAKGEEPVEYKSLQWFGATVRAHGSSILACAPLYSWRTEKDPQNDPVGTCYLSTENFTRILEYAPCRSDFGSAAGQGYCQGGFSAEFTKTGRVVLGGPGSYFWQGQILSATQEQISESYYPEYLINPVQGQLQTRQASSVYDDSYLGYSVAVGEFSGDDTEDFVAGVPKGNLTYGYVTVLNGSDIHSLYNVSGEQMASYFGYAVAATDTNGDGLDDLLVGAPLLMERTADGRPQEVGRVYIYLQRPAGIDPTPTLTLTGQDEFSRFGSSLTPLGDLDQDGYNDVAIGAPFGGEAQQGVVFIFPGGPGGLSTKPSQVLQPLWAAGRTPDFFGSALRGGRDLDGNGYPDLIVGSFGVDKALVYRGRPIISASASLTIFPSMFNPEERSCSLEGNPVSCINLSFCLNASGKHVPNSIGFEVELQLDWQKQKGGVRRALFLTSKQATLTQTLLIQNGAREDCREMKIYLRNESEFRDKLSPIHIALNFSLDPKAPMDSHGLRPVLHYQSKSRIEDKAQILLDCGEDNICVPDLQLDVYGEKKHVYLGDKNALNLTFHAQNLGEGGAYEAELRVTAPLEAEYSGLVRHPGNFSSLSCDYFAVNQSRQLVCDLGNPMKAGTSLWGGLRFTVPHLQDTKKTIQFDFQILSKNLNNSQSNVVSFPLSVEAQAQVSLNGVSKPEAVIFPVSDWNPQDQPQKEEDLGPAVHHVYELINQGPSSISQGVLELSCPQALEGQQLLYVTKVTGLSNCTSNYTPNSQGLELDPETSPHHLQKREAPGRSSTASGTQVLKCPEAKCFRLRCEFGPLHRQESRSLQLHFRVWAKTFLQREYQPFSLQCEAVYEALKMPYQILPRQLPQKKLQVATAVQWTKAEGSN
T2 sequence (P09055 21-728 limits assumed): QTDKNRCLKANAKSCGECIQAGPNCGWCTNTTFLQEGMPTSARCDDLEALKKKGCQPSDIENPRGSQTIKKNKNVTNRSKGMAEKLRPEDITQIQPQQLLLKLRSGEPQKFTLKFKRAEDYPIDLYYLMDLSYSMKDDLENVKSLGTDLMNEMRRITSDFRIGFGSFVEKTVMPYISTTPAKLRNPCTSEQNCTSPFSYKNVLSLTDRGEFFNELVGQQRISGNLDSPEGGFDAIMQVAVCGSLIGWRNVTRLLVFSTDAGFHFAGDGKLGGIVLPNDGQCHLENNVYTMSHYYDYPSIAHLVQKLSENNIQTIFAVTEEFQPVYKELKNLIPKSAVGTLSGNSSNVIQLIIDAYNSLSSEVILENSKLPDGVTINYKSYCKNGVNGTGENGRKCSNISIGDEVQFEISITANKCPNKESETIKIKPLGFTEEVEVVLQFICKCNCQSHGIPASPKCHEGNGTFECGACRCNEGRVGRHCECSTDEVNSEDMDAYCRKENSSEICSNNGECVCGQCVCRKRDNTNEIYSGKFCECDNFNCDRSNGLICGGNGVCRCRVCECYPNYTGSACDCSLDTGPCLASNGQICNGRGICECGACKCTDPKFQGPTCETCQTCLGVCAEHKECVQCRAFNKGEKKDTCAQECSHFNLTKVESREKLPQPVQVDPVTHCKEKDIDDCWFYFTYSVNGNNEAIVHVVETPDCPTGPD
Procedure: as §2, §3

mαvβ5 = biological target: T3, mαvβ5 (Mus musculus, UniProt O70309+P43406); test: Mouse AlphaLISA integrin-ligand blocking assay (vitronectin); type: biochemical; details: Table 12; read-out: IC50 Mouse integrin AlphaLISA assays mαvβ5
T3 construct: The full extracellular domains for all α and β integrin subunits; (GGGS)3 linker (C); acidic coiled-coil with cysteine (C); GG-Avitag (C); hexa-histidine tag (C); basic coiled-coil with cysteine (C); made in house; host or cells: Expi293 cells
T3 sequence (P43406 31-988 limits assumed): as the sequence (P43406 31-988 limits assumed) above
T3 sequence (O70309 24-719 limits assumed): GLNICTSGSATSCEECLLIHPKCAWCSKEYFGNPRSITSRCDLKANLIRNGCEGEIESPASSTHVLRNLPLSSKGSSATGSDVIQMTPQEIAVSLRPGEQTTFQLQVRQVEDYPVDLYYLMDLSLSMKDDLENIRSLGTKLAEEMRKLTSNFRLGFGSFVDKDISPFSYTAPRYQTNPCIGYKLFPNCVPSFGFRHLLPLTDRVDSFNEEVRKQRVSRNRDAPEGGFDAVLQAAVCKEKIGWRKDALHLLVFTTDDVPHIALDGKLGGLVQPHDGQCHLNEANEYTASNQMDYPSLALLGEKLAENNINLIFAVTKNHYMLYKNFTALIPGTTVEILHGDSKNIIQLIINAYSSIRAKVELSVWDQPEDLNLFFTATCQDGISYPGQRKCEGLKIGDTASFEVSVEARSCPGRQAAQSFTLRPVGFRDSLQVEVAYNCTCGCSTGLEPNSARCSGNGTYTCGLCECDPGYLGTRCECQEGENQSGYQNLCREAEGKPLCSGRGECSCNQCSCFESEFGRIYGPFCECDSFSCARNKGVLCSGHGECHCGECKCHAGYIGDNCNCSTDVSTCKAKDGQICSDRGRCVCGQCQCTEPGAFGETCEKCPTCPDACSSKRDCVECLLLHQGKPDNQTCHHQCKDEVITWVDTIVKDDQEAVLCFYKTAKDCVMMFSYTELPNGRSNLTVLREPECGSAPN
Procedure: as §2, §3

mαvβ6 = biological target: T4, mαvβ6 (Mus musculus, UniProt P43406+Q9Z0T9); test: Mouse AlphaLISA integrin-ligand blocking assay (LAP); type: biochemical; details: Table 12; read-out: IC50 Mouse integrin AlphaLISA assays mαvβ6
T4 construct: The full extracellular domains for all α and β integrin subunits; (GGGS)3 linker (C); acidic coiled-coil with cysteine (C); GG-Avitag (C); hexa-histidine tag (C); basic coiled-coil with cysteine (C); made in house; host or cells: Expi293 cells
Procedure: as §2, §3

mαvβ1 = biological target: T5, mαvβ1 (Mus musculus, UniProt P09055+P43406); test: Mouse AlphaLISA integrin-ligand blocking assay (fibronectin); type: biochemical; details: Table 12; read-out: IC50 Mouse integrin AlphaLISA assays mαvβ1
T5 construct: The full extracellular domains for all α and β integrin subunits; (GGGS)3 linker (C); acidic coiled-coil with cysteine (C); GG-Avitag (C); hexa-histidine tag (C); basic coiled-coil with cysteine (C); made in house; host or cells: Expi293 cells
T5 sequence (P43406 31-988 limits assumed): as the sequence (P43406 31-988 limits assumed) above
T5 sequence (P09055 21-728 limits assumed): as the sequence (P09055 21-728 limits assumed) above
Procedure: as §2, §3

hαvβ6 = biological target: T6, hαvβ6 (Homo sapiens, UniProt P06756+P18564); test: Integrin cell-based ELISA (CELISA) binding, CHOK1-human αvβ6 cells; details: FIG. 3C
T6 construct: expressed in transfected cells
Procedure: (§4) Integrin cell-based ELISA (CELISA) assay. Cell binding EC50 data for antibodies were obtained for CHOK1 parental cells and CHOK1 cells expressing human or mouse αvβ1, αvβ6, and αvβ1 integrins by cell-based ELISA. Three days prior to the assay cells were seeded at 10,000 cells per well in 100 μL/well of media in Falcon 96-well Flat-Bottom Tissue Culture Plates (REF 353916), resulting in an even cell monolayer in each well on the day of the assay. On the day of the assay, media was removed from the cells and a fivefold titration of primary antibodies was added at concentrations ranging from 0 to 200 nM in TBSF+MnCl2 buffer (25 mM Tris, 0.15 M NaCl, 0.1% BSA, 0.5 mM MnCl2, pH 7.5). Cells incubated with primary antibody solution for 1 hour at room temperature. Primary antibody was removed and plates were washed twice with 150 μL/well of 1×DPBS+Tween 20 (TEKnova Cat #β0297, diluted to 1× in distilled water GIBCO #15230-147), before adding 50 μL/well of a 1:5000 dilution of HRP-conjugated goat anti-mouse IgG (Southern Biotech, #1030-05) in TBSF+MnCl2. After 30 minutes of incubation at room temperature, secondary antibody was removed, and cells were washed twice with 150 μL/well of 1×DPBS+Tween 20. […] Absorbance was read on a TECAN plate reader at 450 nm, with a 620 nm reference wavelength.

mouse αvβ8 = biological target: T7, mouse αvβ8 (Mus musculus, UniProt P43406+Q0VBD0); test: Latent TGFβ activation assay, TMLC / CHOK1-integrin co-culture (PAI-1 luciferase); type: cell-based; details: FIG. 5B
T7 construct: expressed in transfected cells
Procedure: (§5) Latent TGFβ activation assay. Transfected mink lung epithelial cell (TMLC) cell line containing the TGFβ responsive PAI-1 promoter driving luciferase expression (Mazzieri et al, Methods Mol. Biol. 142, 13-27 (2000)) and the CHO-K1 human and mouse αvβ×integrin cell lines were grown under optimized growth conditions to 90% confluency. TMLC cells were trypsinized and plated at 25,000 cells/well in 50 μL in Costar clear bottom white walled plates. In a separate plate, 25 μL of serially diluted antibodies at 4×concentration were added to wells containing 25 μL of either 25,000 cells of human or mouse αvβ×cells. After a brief mixing, the 50 μL mixture was transferred to the TMLC cell plates for a total volume of 100 μL and incubated at 37° C. for 16 hours. 100 μL of ONE-Glo kit (#PRE6120) was added to each well and read after three to five minutes on the Envision plate reader.

mouse αvβ6 = biological target: T8, mouse αvβ6 (Mus musculus, UniProt P43406+Q9Z0T9); test: as above; type: cell-based; details: FIG. 5B
T8 construct: expressed in transfected cells
Procedure: as §5

human αvβ1 = biological target: T9, human αvβ1 (Homo sapiens, UniProt P05556+P06756); test: as above; type: cell-based; details: FIG. 5B
T9 construct: expressed in transfected cells
Procedure: as §5

human αvβ6 = biological target: T10, human αvβ6 (Homo sapiens, UniProt P06756+P18564); test: as above; type: cell-based; details: FIG. 5B
T10 construct: expressed in transfected cells
Procedure: as §5

mouse αvβ1 = biological target: T11, mouse αvβ1 (Mus musculus, UniProt P09055+P43406); test: as above; type: cell-based; details: FIG. 5B
T11 construct: expressed in transfected cells
Procedure: as §5

human αvβ8 = biological target: T12, human αvβ8 (Homo sapiens, UniProt P06756+P26012); test: as above; type: cell-based; details: FIG. 5B
T12 construct: expressed in transfected cells
Procedure: as §5

mαvβ3 = biological target: T13, mαvβ3 (Mus musculus, UniProt O54890+P43406); test: Mouse AlphaLISA integrin-ligand blocking assay (vitronectin); type: biochemical; details: Table 12; read-out: IC50 Mouse integrin AlphaLISA assays mαvβ3
T13 construct: The full extracellular domains for all α and β integrin subunits; (GGGS)3 linker (C); acidic coiled-coil with cysteine (C); GG-Avitag (C); hexa-histidine tag (C); basic coiled-coil with cysteine (C); made in house; host or cells: Expi293 cells
T13 sequence (P43406 31-988 limits assumed): as the sequence (P43406 31-988 limits assumed) above
T13 sequence (O54890 26-717 limits assumed): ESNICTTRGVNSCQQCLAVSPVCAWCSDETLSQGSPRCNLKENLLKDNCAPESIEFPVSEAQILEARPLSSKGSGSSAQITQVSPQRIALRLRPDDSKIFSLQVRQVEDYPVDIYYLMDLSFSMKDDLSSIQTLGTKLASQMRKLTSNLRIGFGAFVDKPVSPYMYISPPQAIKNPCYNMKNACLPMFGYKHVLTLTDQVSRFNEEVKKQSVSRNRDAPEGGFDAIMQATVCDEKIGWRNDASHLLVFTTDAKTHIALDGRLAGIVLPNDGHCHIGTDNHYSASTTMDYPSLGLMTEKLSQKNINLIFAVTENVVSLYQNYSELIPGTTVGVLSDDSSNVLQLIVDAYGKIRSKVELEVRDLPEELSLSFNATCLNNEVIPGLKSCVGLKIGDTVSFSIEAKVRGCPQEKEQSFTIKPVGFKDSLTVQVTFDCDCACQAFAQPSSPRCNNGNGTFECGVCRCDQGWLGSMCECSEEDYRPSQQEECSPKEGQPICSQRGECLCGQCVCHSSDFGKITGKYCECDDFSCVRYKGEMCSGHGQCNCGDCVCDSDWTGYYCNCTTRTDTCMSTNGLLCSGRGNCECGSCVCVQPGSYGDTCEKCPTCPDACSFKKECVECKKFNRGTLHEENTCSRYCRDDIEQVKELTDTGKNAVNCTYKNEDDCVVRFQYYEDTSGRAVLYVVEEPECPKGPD
Procedure: as §2, §3

hα5β1 = hα5β1 (Homo sapiens, UniProt P05556+P08648); test: Human AlphaLISA integrin-ligand blocking assay (fibronectin); type: biochemical; design: The full extracellular domains for all α and β integrin subunits; (GGGS)3 linker (C); acidic coiled-coil with cysteine (C); GG-Avitag (C); hexa-histidine tag (C); basic coiled-coil with cysteine (C); made in house; host or cells: Expi293 cells; details: Table 11; read-out: IC50 Human integrin AlphaLISA assays hα5β1
Procedure: as §2, §3

hαvβ1 = biological target: T14, hαvβ1 (Homo sapiens, UniProt P05556+P06756); test: Integrin cell-based ELISA (CELISA) binding, CHOK1-human αvβ1 cells; details: FIG. 3C
T14 construct: expressed in transfected cells
Procedure: as §4

Molecule	IC50 (mαvβ8)	IC50 (mα5β1)	IC50 (mαvβ5)	also measured
B1	66.3 nM	> 250 nM	> 250 nM	IC50 ([1]; read-out: IC50 of TGFβ-mediated αSMA induction): 33 ± 21 nM; activity on TGFβ-induced αSMA in normal human lung fibroblasts [2]: ineffective
B2	25.1 nM	> 250 nM	> 250 nM	
B3	71.9 nM	> 250 nM	> 250 nM	
B4	24.7 nM	> 250 nM		
B5	> 250 nM	> 250 nM	> 250 nM	IC50 ([1]; read-out: IC50 of αSMA expression): > 1000 nM; IC50 (mαvβ6): > 250 nM; IC50 (mαvβ1): > 250 nM; binding to human αvβ6 integrin in CELISA (hαvβ6): preferentially bound; inhibition of latent TGFβ activation, mouse αvβ8 co-culture (mouse αvβ8): minimal activity; inhibition of latent TGFβ activation, mouse αvβ6 co-culture (mouse αvβ6): minimal activity; inhibition of latent TGFβ activation, human αvβ1 co-culture (human αvβ1): potent; inhibition of latent TGFβ activation, human αvβ6 co-culture (human αvβ6): potent; inhibition of latent TGFβ activation, mouse αvβ1 co-culture (mouse αvβ1): minimal activity; inhibition of latent TGFβ activation, human αvβ8 co-culture (human αvβ8): potent; IC50 (mαvβ3): > 250 nM; IC50 (hα5β1): > 250 nM; binding to human αvβ1 integrin in CELISA (hαvβ1): preferentially bound
B6	102 nM	> 250 nM		
